5 molecules from PMC9062193 can be followed below.

B1: YFL-7 (Lac-A6), truncated (ssDNA)
DNA: GCAGGACACCGTAACGGGTGCACACTCTTATTTTTACACGAGCCAAAAATATGTCCTGC
B2: YFL-4 (Lac-A1, Lac1-4), truncated (ssDNA)
DNA: GCAGGACACCGTAACACGGGCTGATGCTCTCTTTATTTTACCTAAATAAAGTGTCCTGC
B3: YFL-5 (Lac-A3, Lac8-2), truncated (ssDNA)
DNA: CAGGCAGGACACCGTAACCGGGCATTTGCTCTCAATTTAGTCTCAAATTGTGGCCTGCCTG

For this data set, the target named is lactoferrin (Lac) (bovine? ("from bovine milk"), UniProt P24627 20-708). Kind of data set: protein microarray.
Sequence of lactoferrin (Lac) (P24627 20-708): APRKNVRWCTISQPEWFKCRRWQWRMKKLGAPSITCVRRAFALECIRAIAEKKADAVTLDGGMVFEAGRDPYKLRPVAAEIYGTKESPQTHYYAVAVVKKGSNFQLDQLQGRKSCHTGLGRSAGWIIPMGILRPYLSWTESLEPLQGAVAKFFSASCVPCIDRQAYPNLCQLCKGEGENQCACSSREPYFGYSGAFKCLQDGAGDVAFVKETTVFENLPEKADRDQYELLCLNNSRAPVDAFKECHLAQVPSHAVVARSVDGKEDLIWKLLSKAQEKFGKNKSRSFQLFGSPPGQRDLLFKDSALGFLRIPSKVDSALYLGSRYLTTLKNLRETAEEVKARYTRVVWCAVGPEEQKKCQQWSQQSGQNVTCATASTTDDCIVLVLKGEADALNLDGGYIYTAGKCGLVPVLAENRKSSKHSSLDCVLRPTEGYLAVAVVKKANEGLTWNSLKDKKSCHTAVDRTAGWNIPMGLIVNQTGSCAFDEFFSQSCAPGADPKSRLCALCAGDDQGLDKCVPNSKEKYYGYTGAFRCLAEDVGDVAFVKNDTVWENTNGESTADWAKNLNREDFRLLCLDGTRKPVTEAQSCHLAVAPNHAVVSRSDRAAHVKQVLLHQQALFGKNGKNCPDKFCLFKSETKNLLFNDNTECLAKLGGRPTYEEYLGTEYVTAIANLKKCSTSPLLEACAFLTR
Molecule B1 gave a binding signal of 2490 fluorescence intensity.

For B2, the binding signal turned out to be 2150 fluorescence intensity.

For the molecule AGGCAGGACACCGTAACCGGTGCATCTATGGCTACTAGCTTTTCCTGCCT (ssDNA) [YFL-1 (Lac-6a), truncated], the binding signal was found to be 1780 fluorescence intensity.

AGGCAGGACACCGTAACCGGTGCATCTATGGCTACTAGCTCTTCCTGCCT (ssDNA) [YFL-6 (Lac-A4), truncated] returned a binding signal of 2840 fluorescence intensity.

For B3, the binding signal stood at 2240 fluorescence intensity.
